Experimental data as given in US20230241072A1, “ANTHRACYCLINE DERIVATIVES” (ALMAC DISCOVERY LIMITED, priority 2019, published 2023).

What was measured:
[1] = test system: Kasumi-2; assay: In vitro cell viability assay (Cell Titre Glo), VNAR drug conjugates: Kasumi-2; format: cell-based, human; conditions: for IC50: Table 5, 96 h
Description: (§1) In Vitro Cell Viability Assays for Cancer Cells Treated with Anti ROR1 VNAR Drug Conjugates
(§2) Cells were seeded into white, clear bottom 96 well plates (Costar) and incubated at 37° C., 5% CO2 for 24 hours. On the following day, dilution series were set up for each test agent at ×10 working stocks. The dose response ×10 stock was: 10000, 5000, 1000, 500, 100, 50, 10, 5, 1, 0.5 nM etc. 10 μL of the ×10 stock solutions were added to the cell plates (90 μl per well) using a multichannel pipette. […] 100d of vehicle control (PBS) was added to the control wells (columns 11 and 12). Plates were incubated at 37′C, 5% CO2 for 72-96 hours. Promega Cell litre Glo reagent was used as per the manufacturer's instructions to assess cell viability. Briefly, assay plates were removed from incubator and allowed to equilibrate to room temperature before adding […] of room temperature Cell litre Glo reagent to each 100 μl assay well. Plates were placed on a plate shaker for 2 minutes at 600 rpm. Plates were allowed to sit for a further 10 minutes at room temperature prior to measuring luminescence read-out using a Clariostar plate-reader (BMG). Data was analysed by calculating the average for untreated (vehicle only) control wells and determining the % of control for each treated well. % of control data was then plotted against Log [Treatment] concentration and the IC50 value derived using non-linear regression fitting in GraphPad Prism software.
(§3) The following cell lines were used: • Kasumi-2—human B cell leukaemia precursor; • PA-1—human ovarian cancer cell line; • PA-1 ROR1 ko—human ovarian cancer cell line with ROR1 knock-out; • 697—human B cell leukaemia precursor, and • MHH-ES1—human Ewing's sarcoma cell line.

[2] = test system: MHH-ES1; assay: In vitro cell viability assay (Cell Titre Glo), VNAR drug conjugates: MHH-ES1; format: cell-based, human; conditions: for IC50: Table 5, 96 h
Description: as §1, §2, §3

[3] = test system: PA-1 ROR1 ko; assay: In vitro cell viability assay (Cell Titre Glo), VNAR drug conjugates: PA-1 ROR1 ko; format: cell-based, human; conditions: for IC50: Table 5, 96 h, PA-1 ROR1 ko
Description: as §1, §2, §3

[4] = test system: PA-1; assay: In vitro cell viability assay (Cell Titre Glo), VNAR drug conjugates: PA-1; format: cell-based, human; conditions: for IC50: Table 5, 96 h
Description: as §1, §2, §3

[5] = Human plasma stability of protein-PNU conjugates (LC-MS of released payload); format: in vitro ADME; conditions: 37° C., up to 168 h, 4 or 2 uM PDC, LLOQ 0.1 or 0.156 uM
Description: Different conjugates were incubated at 37° C. for 168 h in human plasma at a final concentration of 4 μM or 2 μM of protein. Samples were analysed by LC-MS as a function of time up to and including 168 h and the amount of released PNU159682 and EDA-PNU159682 derivative was quantified by reference to calibration standards.

[6] = target: T1, human ROR2 (Homo sapiens, UniProt Q01974); assay: SPR / BLI binding to immobilised ROR2-hFc
T1 construct: ROR1-hFc or ROR2-hFc fusion proteins (extracelluar domains) were immobilised
Description: (§4) VNARs were genetically fused to engineered hIgG1 Fc domains via standard [G4S]3 that contained a cysteine substitution in the hIgG1 Fc sequence, S239C (EU numbering). The VNAR Fc fusion proteins were expressed as secreted protein in CHO K1 cells and purified from the media using MabSelect™ SuRe™ (Evitria, Switzerland). Purified proteins were analysed by SEC (AdvanceBio, Agilent), SDS PAGE and mass spectrometry to confirm sequence and protein integrity. Binding kinetics were determined using a Pioneer Surface Plasmon Resonance (SPR) instrument (SensiQ/Pall ForteBio), or the Biolayer Interferometry (BLI) Octet K2 system (ForteBio). ROR1-hFc or ROR2-hFc fusion proteins (extracelluar domains) were immobilised in sodium acetate pH5 buffer to COOH2 chips or AR2G sensors using amine coupling. VNARs and VNAR-Fc molecules were tested at various concentrations and the Ka (M^−1 s^−1), Kd (s^−1) and KD (nM) values were determined using QDat software (SensiQ/Pall ForteBio) or Octet Data Analysis High Throughput software (ForteBio) for Biolayer Interferometry. ROR1 2A2 mAb (Biolegend) and ROR2 mAb (R&D Systems) were included as controls for positive/negative binding to ROR1 and ROR2. 2V is a control VNAR sequence, derived from a naïve VNAR library, so is representative of this protein class but has no known target.
(§5) Binding kinetics for binding of the multimeric VNAR proteins to ROR1-hFc or ROR2-hFc fusion proteins (extracelluar domains) were determined using a Pioneer Surface Plasmon Resonance (SPR) instrument (SensiQ/Pall ForteBio) or the Biolayer Interferometry (BLI) Octet K2 system (ForteBio) as previously described.

[7] = target: T2, ROR1 (Homo sapiens, UniProt Q01973); assay: SPR / BLI binding kinetics to immobilised ROR1-hFc; parameters: ROR1-hFc or ROR2-hFc fusion proteins (extracelluar domains) were immobilised; conditions: for hROR1 Kd: dissociation rate
Description: as §4, §5

[8] = target: Cathepsin B (Homo sapiens, UniProt P07858); assay: Cathepsin B treatment of protein-PNU conjugates, payload release; format: in vitro ADME; conditions: after treatment with Cat B
Text: Cathepsin B treatment of VNAR-hFc-vc-PAB-EDA-PNU conjugates and the corresponding conjugates of the multimeric proteins liberated free EDA-PNU159682 derivative in a quantitative fashion. Whereas, VNAR-hFc-va-EDA-PNU conjugates and the corresponding conjugates of the multimeric proteins were completely stable to Cathepsin B treatment.
Only the vc-PAB-EDA-PNU releases payload on treatment with CatB as expected for the conditions used in this in vitro assay. The release is quantitative—as the conjugates have a drug to antibody ratio of 2, then twice the concentration of payload released versus the concentration of conjugate is expected after CatB treatment. This expectation matches the data shown in Table 11 for vc-PAB-EDA-PNU conjugates.

[9] = Mouse plasma stability of protein-PNU conjugates (LC-MS of released payload); format: in vitro ADME; conditions: 37° C., 4 μM protein
Description: Different P3A1-hFc-PNU conjugates were incubated at 37° C. in mouse plasma at a final concentration of 4 μM of protein. Samples were analysed by LC-MS as a function of time and the amount of released PNU159682 and EDA-PNU159682 derivative was quantified by reference to calibration standards.

[10] = test system: 697; assay: In vitro cell viability assay (Cell Titre Glo), VNAR drug conjugates: 697; format: cell-based, human
Description: as §1, §2, §3

[11] = target: T2, ROR1; conditions: VNAR domain; data in WO 2019/122447; cited from earlier work
[12] = ratio to corresponding non-binding 2V-hFc conjugate

B1: P3A1hFc(442)-PEG4-va-EDA-PNU (conjugate)
chain: TRVDQTPRTATKETGESLTINCVLTDTSYGLYSTSWFRKNPGTTDWERMSIGGRYVESVNKGAKSFSLRIKDLTVADSATYYCKAREARHPWLRQWYDGAGTVLTVNGGGGSGGGGSGGGGS
modifications: left off: a dimerising Fc or GST
[1]
  IC50: 9.1 nM
[2]
  IC50: 37.5 nM
[3]
  IC50: 18.3 nM
[4]
  IC50: 0.025 nM
[5]
  Observed EDA payload release: No EDA-PNU detected at any time points

B2: P3A1 hFc(442): VNAR P3A1 fused to engineered hIgG1 Fc with cysteine substitution S442C (EU numbering) (protein)
chain: B1 chain
modifications: left off: a dimerising Fc or GST
[6]; Table 3b, VNAR-Fc fusions
  hROR2: No binding
[7]; Table 3b, VNAR-Fc fusions, association rate
  hROR1 Ka (M^−1s^−1): 2.70+05 M^−1s^−1
[7]; Table 3b, VNAR-Fc fusions
  hROR1 Kd: 0.0002 s⁻¹

B3: P3A1 hFc: ROR1-specific VNAR P3A1 fused to engineered hIgG1 Fc domain (S239C) (protein)
chain: B1 chain
modifications: left off: a dimerising Fc or GST
[6]; Table 3, VNAR-Fc fusions
  hROR2: No binding
[7]; Table 3, VNAR-Fc fusions, association rate
  hROR1 Ka: 1.07e+07 M⁻¹ s⁻¹
[7]; Table 3, VNAR-Fc fusions
  hROR1 Kd: 0.000564 s⁻¹
[7]; Table 3, VNAR-Fc fusions, read-out: hROR1 KD
  Kd: 0.084 nM

B4: P3A1hFc-PEG4-va-EDA-PNU (conjugate)
chain: B1 chain
modifications: left off: a dimerising Fc or GST
[1]
  IC50: 2.3 nM
[1]; [12]
  ROR1 targeting/2V non-targeting window Kasumi-2: 43
[2]
  IC50: 18 nM
[2]; [12]
  ROR1 targeting/2V non-targeting window MHH-ES1: 8.4
[8]; figure in brackets
  EDA released, per cent of theoretical conc of payload: 1.7%
[8]; protein 10 uM (2VhFc conjugate 5 uM)
  Average Conc EDA Released: 0.36 µM
[3]
  IC50: 11.3 nM
[3]; ratio to corresponding non-binding 2V-hFc conjugate, PA-1 31-J-06 (ROR1 −/−; matches PA-1 ROR1 ko of Table 5)
  ROR1 targeting/2V non-targeting window PA-1 31-J-06: 4
[4]
  IC50: 0.15 nM
[4]; [12]
  ROR1 targeting/2V non-targeting window PA-1: 360
[5]
  Observed EDA payload release: no EDA-PNU detected at any time points
[9]; 4 h
  Concentration (nM) of free PNU payload detected by LC-MS, 4 h: 3 nM
[9]; 24 h
  Concentration (nM) of free PNU payload detected by LC-MS, 24 h: 4 nM
[9]; 48 h
  Concentration (nM) of free PNU payload detected by LC-MS, 48 h: 1 nM
[9]; 72 h
  Concentration (nM) of free PNU payload detected by LC-MS, 72 h: 2 nM
[9]; 96 h
  Concentration (nM) of free PNU payload detected by LC-MS, 96 h: 5 nM
[9]; 120 h
  Concentration (nM) of free PNU payload detected by LC-MS, 120 h: 3 nM
[10]; Table 5, 96 h
  IC50: 61 nM
[10]; [12]
  ROR1 targeting/2V non-targeting window 697: 4

B5: P3A1: VNAR domain, SEQ ID NO: 43 (protein)
VHH: TRVDQTPRTATKETGESLTINCVLTDTSYGLYSTSWFRKNPGTTDWERMSIGGRYVESVNKGAKSFSLRIKDLTVADSATYYCKAREARHPWLRQWYDGAGTVLTVN
[11]
  binding to ROR1: bind to ROR1
